B1: OR4K15 (parent)
chain: GUUAACGGUCAUAGGCCAUGGAAACUAGGAGCACCAUUUCGCUGCCAGUGAAGAAAUGAACAAAGAAAAUCUGGGCCAGGCAGGCAUCAAAAGAAAUAGUCUUGCGCUCAACCAGAAAGUCUGUAAUCAUUUUAAGGGUA

Variants of: B1
Experiment: self-cleavage, relative activity (ratio to wild type); higher = more cleavage; in vitro, sequencing; the parent is a self-cleaving ribozyme

Variant | self-cleavage
A62G G73A | 0.15
A62G U102C | 1.19
A59G A114G | 0.26
A59C A140U | 1.46
A62G U120C | 1.07
A62G U120G | 0.84
A62G G80C | 0.13
A62G G80A | 0.35
A59U A135G | 1.33
A62G A116G | 0.64
U57G A95G | 2.15
A60U U120C | 0.7
A59C A60G | 0.56
A62G U130C | 1.15
A59U A126G | 1.26
A62G C81U | 0.26
G58A A60G | 1.51
U57C U122A | 1.35
U57C U122C | 0.84
A59G U132A | 0.98
G58U A111G | 0.02
A59G G73A | 0.17
A62G U108A | 0.01
A60C A68G | 1.17

Variant | self-cleavage
A60G G99U | 0.38
A59G A67G | 1.28
A59C A68G | 2.1
A60G G79U | 0.08
A59G U124C | 0.78
A59U A118G | 0.75
G58U A64G | 1.2
C61G | 1.24
C61A | 1.82
C61U | 1.8
G58U C107A | 0.03
A59G A63G | 1.4
G58A A117G | 1.66
U57G A78U | 0.22
A62G A86G | 1.4
A59G A135U | 1.55
A60C A95G | 1.47
U57G U87A | 1.47
A60C | 1.7
A60G | 1.14
A60U | 1.29
A60U U131C | 0.75
A59U A91U | 1.44
A60C U87C | 1.18

Variant | self-cleavage
A59G A140G | 1.25
A59G A62G | 1.27
A59G A62U | 1.32
A62C A91G | 1.31
U57C G84A | 1.76
C61U A62G | 1.65
A59U U120C | 1.78
U57C U124G | 0.94
U57C U124C | 0.59
A59C U127A | 1.3
A60C A135U | 1.44
A60C C71U | 0.04
U57C U70C | 0.47
C61U A110G | 0.11
A60G A95C | 1
A60G A95G | 1.63
A60G A95U | 0.97
A62C U87A | 1.54
A62G A68U | 1.33
A59G C101A | 0.13
A60G A114G | 0.31
A62G C105A | 0.03
G58U A68G | 0.92
A59G A118U | 0.74

Variant | self-cleavage
A59G A118G | 0.75
A60G A66U | 1.26
A60C A89C | 1.8
A60G C112A | 0.02
A62G A92G | 1.22
A60G A67G | 0.84
A60G G80U | 0.09
A62C U72C | 0.26
A60G U120C | 0.82
A60G U120A | 1.93
C61U A86G | 1.72
A59U A117G | 1.72
A59U A117U | 0.89
C61U A89G | 1.62
A60G C107U | 0
A59G U131A | 1.54
A59G U131C | 0.71
A60U A114G | 0.58
A60U A66G | 1.63
A60U C128U | 0.44
A59G G80U | 0.26
A60G A90U | 1.84
A60G A90G | 0.4
C61U A91G | 0.87

Variant | self-cleavage
C61U A91U | 1.73
A59G A129G | 1.16
A59G A117U | 0.95
A59G G93A | 1.61
A59U A96C | 0.81
A59U A96G | 1.87
A59U A78C | 0.4
A60G C128U | 1.12
A60G C109A | 0.21
A62G C77U | 2.24
A59U A82U | 0.15
A59U A82G | 0.43
A60U A111G | 0.05
A62C A94G | 1.61
G58A U132C | 1.64
A59G C121A | 2.81
A60U A82G | 0.66
A60U A82U | 0.45
A62G A78C | 0.37
A62G A78U | 0.19
U57C G106A | 0
A60G U97A | 1.69
A59G A96U | 0.71
A59G A96G | 1.66

Variant | self-cleavage
A60C U72A | 0.21
A59G C85U | 0.51
A59G A125G | 0.4
G58A A96G | 1.84
A60G A140U | 1.06
A60G C113U | 0.09
A60U G115A | 0.29
A62C A125G | 0.58
G58A A67G | 0.36
A59G A94G | 0.79
A59G U120A | 1.23
G58U A117G | 1.89
A60G U87A | 1.02
A60U A118G | 1.58
A62G A114U | 0.02
A60G U100A | 0.52
A60G C121U | 1.48
A59G U139A | 2.02
A59G U139C | 1.4
A62G C113U | 0.14
A62C U122C | 1.33
U57C U120A | 2.01
U57C U120C | 0.41
A62C U120C | 0.93

Variant | self-cleavage
C61U A64U | 0.27
A60U A86U | 1.67
A60G A86G | 1.36
A60U A78G | 0.23
A60G A68C | 1.57
A59U U108A | 0.02
U57C U97A | 1.32
A60G A69U | 1.67
A60G A64G | 1.24
A60C A96G | 1.77
A62C A118G | 1.46
A59G A111U | 0.07
A60U U133C | 2.17
A60U C113U | 0.27
A62G A95U | 2
C61U A98U | 2.63
A60U A90G | 1.34
A62C A69G | 0.62
A59G U103A | 0.62
A62G U122G | 2.99
A62G U122C | 1.27
U57C U132C | 0.52
A59U A62C | 1.11
A59U A62U | 1.44

Variant | self-cleavage
A60G G74U | 0.18
A62G G75U | 0.15
A62G G75C | 0.18
U57C U108C | 0.01
A59G A82U | 0.34
A59G A82G | 0.45
A62G A94U | 2.08
A62G A110C | 0.34
A59G U122C | 1.1
A60G U124A | 0.75
A62G C101U | 0.41
A59G U72C | 0.23
A59G U127C | 0.7
A59G U127A | 1.82
A62G A67U | 1.82
A62G A67C | 1.96
A62G A67G | 0.96
A62G A96U | 1.26
A59U A64G | 1.4
A59U A111G | 0.02
A59U A111U | 0.13
U57C U87C | 0.63
A59U A125G | 0.43
G58U U102C | 1.68

Variant | self-cleavage
A60G C85U | 1.31
A62G A91G | 1.12
A60U A63G | 0.71
A62G A63G | 1.21
U57G A68G | 1.53
A62G A64U | 1.23
A59G A116C | 0.07
G58A | 1.13
G58U | 1.43
A62G G138A | 1.04
A60U U122A | 2.08
C61U A126G | 0.55
A62G C76G | 0.06
C61A A91C | 2.41
A59C U122C | 1.06
A60U G106A | 0
A60U G106C | 0
A62C A66G | 1.51
A59G C107U | 0.01
A60G U132C | 1.07
A59U C61U | 1.53
A62C U132C | 1.25
A60U U124C | 0.94
U57G A129U | 1.78

Variant | self-cleavage
A59U A134U | 1.92
A62C A78C | 0.31
A62G A135U | 1.67
A59G C71A | 0.48
A62G C112U | 0.01
A59U U72C | 0.17
A59U U72A | 0.14
U57C U100C | 1.83
A60C G123A | 1.98
A59G A60U | 2.03
A59G A60G | 0.59
A62G A98U | 1.39
A62G A98G | 0.4
C61U U120A | 2.02
A62G U127C | 0.38
A60G A94G | 1.37
A59U U70C | 0.53
A59U A89G | 1.48
A59G A78G | 0.26
U57G U127C | 1.33
A60G A82G | 0.21
A60G A82C | 0.08
A60G A82U | 0.12
U57G A62G | 0.83

Variant | self-cleavage
A60C U130C | 1.4
A59U U131A | 0.84
A60G U108A | 0.02
A60G U108C | 0.03
A60G C105G | 0.01
A60G C105A | 0.04
A60G G83A | 1.3
A60G A129U | 1.14
A59G A89U | 0.98
A62G U124G | 1.13
A62G U124C | 0.94
A59G G104A | 0.06
A59C U100C | 1.22
A60G A98G | 0.55
C61U A140G | 1.73
A59U A66G | 1.31
A59U U103C | 0.31
A62G A117C | 0.69
A60G U102C | 1.4
G58A A95G | 1.51
A60U A140G | 2.47
A60U A140U | 1.59
A60U A94G | 1.5
A62G A111G | 0.02

Variant | self-cleavage
A59U U122C | 0.69
A59G U97C | 0.82
A60G U70C | 0.8
A60G U70G | 1.65
G58U U124C | 0.25
A60U A68G | 1.79
A62G G106U | 0.01
A62G U97C | 1.34
A60G A125U | 2.64
U57G A126G | 0.52
A59G G75A | 0.22
A60G A110C | 0.4
A59G A92G | 1.22
G58A U102C | 2.39
A59U A69G | 1.51
A59U A60G | 1.32
A62G C88G | 1.14
A59G A69G | 1.26
C61U U87C | 1.35
A62G U70C | 0.47
A62G U70A | 1.59
A60U A117U | 1.11
A60C U122A | 1.74
A60G C77U | 2.13

Variant | self-cleavage
A62G A82U | 0.25
A62G A82G | 0.49
A62C A111G | 0.03
A60G A78U | 0.35
A60G A78C | 0.17
A59U A140G | 2.05
C61U G138A | 1.4
A62G U72C | 0.24
A60G A135U | 1.41
A62G A89U | 1.85
A62G A89G | 0.94
A59G A68G | 1.22
A62G C109U | 0.53
U57G U130C | 0.44
A62C A67G | 0.86
A60G A117C | 0.3
A60G A117G | 1.55
A60U U127A | 2.36
A60U U127C | 0.92
A62G G84C | 0.49
A62G G84A | 1.73
A60U G138A | 1.37
U57C U103C | 0.86
A59G U133A | 1.28

Variant | self-cleavage
A59G U133C | 1.79
A60G U122C | 0.84
A60G U122A | 1.41
A62G A134U | 1.75
A62G U103C | 0.98
U57C G75C | 0.17
A60U A110G | 0.24
A60G G106A | 0.02
G58A A111G | 0
U57C U102C | 1.38
U57C U102G | 0.29
U57C U102A | 0.48
A59G A126G | 0.81
A60G C76U | 0.13
G58U U120A | 1.17
U57G A64G | 0.9
A62C U108A | 0.02
G58A U130C | 0.82
A60G A89G | 1.55
A60G A89U | 1.5
A60G A89C | 1.36
G58U A126G | 0.8
